The source of these data is the RNAGym collection of RNA variant scans (doi:10.1093/nar/gkz1192).

The chains are these.
B1: CPEB3 Ribozyme (parent)
chain: UAACAGGGGGCCACAGCAGAAGCGUUCACGUCGCAGCCCCUGUCAGAUUCUGGUGAAUCUGCGAAUUCUGCUGUAUAUCUC

Variants of B1 are the subject of the data set. The data set is described as follows: self-cleavage, relative activity (ratio to wild type); higher = more cleavage; in vitro, sequencing. The essentials: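 For each CPEB3 ribozyme variant, relative activity is its cleaved/total read fraction divided by the unmutated ribozyme's. Barcoded error-prone PCR libraries were transcribed by T7 RNA polymerase (5 hours, 37°C) and held in DNase I for 15 min before an EDTA stop, with cleavage occurring throughout. Template-switching reverse transcription and Illumina sequencing were used to read the RNAs. A 5-read minimum applied, and results are the mean of three batches.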
A65C: the self-cleavage turned out to be 0.29.

Regarding A65C U66C, the self-cleavage was 0.11.

Consider G61U U80C, for which the self-cleavage worked out at 0.65.

Consider G63U G70A, for which the self-cleavage came out at 0.62.

With G63A U80C, the self-cleavage is 0.93.

With G63A U80A, the self-cleavage was determined as 0.97.

For the variant A65C C81A, the self-cleavage is 0.5.

With A64G U74C, the self-cleavage was determined as 1.15.

As to A64G U74A, the self-cleavage came to 1.2.

Consider A64G U74G, for which the self-cleavage was 1.26.

As for G61A U72C, the self-cleavage came out at 0.73.

As for G61A U72A, the self-cleavage stood at 0.3.

Consider G61C A65C, for which the self-cleavage was 0.22.

On to G61C A65G, for which the self-cleavage was 0.39.

As for A64C U74C, the self-cleavage was 0.44.

On to U60C U69G, for which the self-cleavage was 0.39.

Take U60C U69C: the self-cleavage was found to be 0.37.

In the case of U60C U69A, the self-cleavage was determined as 0.35.

Take A64U U78G: the self-cleavage was found to be 0.35.

With A64U U78C, the self-cleavage is 0.31.

As for A64U U78A, the self-cleavage was 0.49.

For A64U C79A, the self-cleavage turned out to be 0.36.

Take A64U C79U: the self-cleavage was found to be 0.39.

With G63A U74C, the self-cleavage came out at 1.21.

As for G63A U74A, the self-cleavage turned out to be 0.33.

Turning to G63U U76G, the self-cleavage amounted to 1.17.

Take G63U U76A: the self-cleavage was found to be 1.23.

As to G63U U76C, the self-cleavage stood at 1.12.

With A65C A75G, the self-cleavage is 0.11.

On to C62A U76C, for which the self-cleavage was determined as 0.17.

On to A64G G70U, for which the self-cleavage was determined as 0.29.

In the case of A64G G70A, the self-cleavage amounted to 0.37.

Regarding A64G G70C, the self-cleavage is 0.21.

Regarding C62A U66A, the self-cleavage was determined as 0.48.

As for C62A U66C, the self-cleavage is 0.25.

For the variant G61U G70A, the self-cleavage turned out to be 0.31.

For U60C U80C, the self-cleavage worked out at 0.57.

Consider U60C U80G, for which the self-cleavage is 0.44.

For the variant U60C U80A, the self-cleavage was 0.61.

Turning to G63U U74C, the self-cleavage amounted to 1.19.

On to G63U U74G, for which the self-cleavage was determined as 1.21.

In the case of G63U U74A, the self-cleavage was 1.29.

As to A64U U69A, the self-cleavage came out at 0.32.

For A64U U69G, the self-cleavage turned out to be 0.4.

Consider A64U U69C, for which the self-cleavage was 0.29.

Turning to C62U U72G, the self-cleavage worked out at 0.29.

As to C62U U72A, the self-cleavage was 0.4.

On to C62U U72C, for which the self-cleavage was 0.29.

For U60G U66G, the self-cleavage is 0.24.

With U60G U66C, the self-cleavage came to 0.15.

For G61A G73A, the self-cleavage is 1.21.

On to C62A U74C, for which the self-cleavage amounted to 0.4.

With C62A U74A, the self-cleavage turned out to be 0.18.

Take G63C: the self-cleavage worked out at 0.92.

As for G63A, the self-cleavage worked out at 0.87.

For G63U, the self-cleavage turned out to be 1.09.

Turning to G61C U66C, the self-cleavage came out at 0.54.

For the variant G61C U66A, the self-cleavage came out at 0.23.

Consider A64C U72A, for which the self-cleavage came to 0.27.

With A64C U72C, the self-cleavage was determined as 0.48.

For A64U A65C, the self-cleavage is 0.13.

Take A64U A65G: the self-cleavage came to 0.25.

On to A64U A65U, for which the self-cleavage came to 0.37.

For U60C U76C, the self-cleavage amounted to 0.51.

As for U60C U76G, the self-cleavage came out at 0.51.

U60C U76A: the self-cleavage was found to be 0.58.

Take A64U U76C: the self-cleavage is 0.4.

As to A64U U76A, the self-cleavage came out at 0.32.

As for A64U U76G, the self-cleavage came out at 0.24.

U60G A64G: the self-cleavage came to 0.42.

Turning to U60G A64U, the self-cleavage was 0.21.

G61A C79A: the self-cleavage came to 1.16.

As to A64G U78G, the self-cleavage is 1.11.

For the variant A64G U78A, the self-cleavage was 1.07.

Turning to A64G U78C, the self-cleavage turned out to be 0.77.

As to A64U A77G, the self-cleavage worked out at 0.39.

For the variant A64U A77U, the self-cleavage turned out to be 0.46.

As for A64C A65G, the self-cleavage turned out to be 0.16.

For A64C A65U, the self-cleavage came to 0.09.

In the case of A64U C81A, the self-cleavage worked out at 0.42.

As for G63C U66C, the self-cleavage came out at 0.37.

Regarding A64C G70A, the self-cleavage was found to be 0.33.

Take G61A U78C: the self-cleavage came to 0.62.

As for C62A U67A, the self-cleavage was 0.32.

As to U60G U72G, the self-cleavage worked out at 0.28.

With U60G U72A, the self-cleavage came out at 0.22.

U60G U72C: the self-cleavage is 0.32.

As for A64U, the self-cleavage stood at 0.32.

Turning to A64C, the self-cleavage came to 0.29.

In the case of A64G, the self-cleavage was 0.93.

Regarding A64U G73A, the self-cleavage amounted to 0.98.

Take A64U G73C: the self-cleavage was found to be 0.67.

G61U U69A: the self-cleavage stood at 0.3.

G61C G63U: the self-cleavage worked out at 0.35.

U60G C62A: the self-cleavage stood at 0.34.

For U60G U67A, the self-cleavage was 0.26.

For U60G U67C, the self-cleavage was found to be 0.13.

For the variant A64C C81U, the self-cleavage was determined as 0.43.

C62A A65U: the self-cleavage is 0.24.

Consider C62A A65G, for which the self-cleavage was found to be 0.36.

With C62U U66C, the self-cleavage turned out to be 0.26.

C62U U66A: the self-cleavage was found to be 0.18.

G63U U72C: the self-cleavage was 1.2.

Turning to G63U C79U, the self-cleavage amounted to 1.09.

For G63C U76C, the self-cleavage was found to be 1.03.

Turning to U60C U72A, the self-cleavage is 0.37.

Turning to U60C U72G, the self-cleavage stood at 0.39.

In the case of U60C U72C, the self-cleavage turned out to be 0.53.

Consider G63A C81U, for which the self-cleavage came to 1.07.

In the case of A65C U67C, the self-cleavage was found to be 0.23.

Regarding A64U U67C, the self-cleavage is 0.32.

A64U U67A: the self-cleavage worked out at 0.29.

On to C62U A75G, for which the self-cleavage turned out to be 0.22.

C62U A75C: the self-cleavage amounted to 0.44.

Regarding G61C U78C, the self-cleavage was 0.33.

For A65C U72A, the self-cleavage was determined as 0.27.

A65C U72C: the self-cleavage was found to be 0.35.

Consider C62A U69A, for which the self-cleavage is 0.31.

In the case of C62A U69C, the self-cleavage came to 0.34.

On to C62A U69G, for which the self-cleavage was 0.33.

For C62G C79A, the self-cleavage worked out at 0.24.

As to U60G U74C, the self-cleavage stood at 0.88.

In the case of U60G U74A, the self-cleavage was found to be 0.82.

Regarding A64C U78C, the self-cleavage worked out at 0.28.

In the case of G63U A64G, the self-cleavage was determined as 0.79.

As to G63U A64U, the self-cleavage was 0.43.

G63A U78A: the self-cleavage worked out at 0.93.

For G63A U78C, the self-cleavage was 0.82.

Consider G61U U72C, for which the self-cleavage amounted to 0.72.

In the case of G61U U72G, the self-cleavage was found to be 0.53.

As for U60G A77U, the self-cleavage came out at 0.38.

Turning to U60G A77G, the self-cleavage worked out at 0.47.

Consider C62U U69A, for which the self-cleavage came out at 0.38.

In the case of C62U U69C, the self-cleavage worked out at 0.32.

Regarding C62A, the self-cleavage worked out at 0.31.

With C62U, the self-cleavage came out at 0.2.

For the variant C62G, the self-cleavage was determined as 0.3.

U60C U74C: the self-cleavage worked out at 0.79.

As for U60C U74G, the self-cleavage came to 0.66.

U60C U74A: the self-cleavage is 0.96.

Turning to G63A A75U, the self-cleavage worked out at 0.84.

For G63A A75G, the self-cleavage was 0.49.

In the case of C62G A65U, the self-cleavage stood at 0.27.

As for G63A U67A, the self-cleavage worked out at 0.31.

Regarding G63A U67C, the self-cleavage amounted to 0.3.

Consider C62A U72G, for which the self-cleavage stood at 0.19.

C62A U72C: the self-cleavage came out at 0.24.

With C62A U72A, the self-cleavage turned out to be 0.17.

Turning to G63U A65G, the self-cleavage stood at 0.5.

As for G63U A65U, the self-cleavage is 0.51.

Regarding A64G A65U, the self-cleavage worked out at 0.19.

For the variant A64G A65C, the self-cleavage turned out to be 0.31.

For A64G A65G, the self-cleavage was 0.28.

For the variant U60G, the self-cleavage was found to be 0.48.

For the variant U60G U80C, the self-cleavage was 0.63.

With G63U U67C, the self-cleavage worked out at 0.29.

G63U U67A: the self-cleavage was 0.58.

In the case of G63A A65G, the self-cleavage was found to be 0.38.

Consider C62U U74A, for which the self-cleavage was found to be 0.32.

Turning to C62U U74G, the self-cleavage was found to be 0.19.

Regarding C62A A77G, the self-cleavage was 0.24.

A64U U66A: the self-cleavage stood at 0.27.

On to A64U U66C, for which the self-cleavage was 0.31.

For the variant A64U U66G, the self-cleavage is 0.13.

In the case of A64C U69C, the self-cleavage was 0.4.

Consider A64C U69G, for which the self-cleavage amounted to 0.47.

Take G61U U76A: the self-cleavage amounted to 0.39.
